In patent US20240287172A1 (SCIRHOM, published 2024):

T1: hiR2-FL-I483V-T7 (human, UniProt Q6PJF5 1-856)
T1 sequence: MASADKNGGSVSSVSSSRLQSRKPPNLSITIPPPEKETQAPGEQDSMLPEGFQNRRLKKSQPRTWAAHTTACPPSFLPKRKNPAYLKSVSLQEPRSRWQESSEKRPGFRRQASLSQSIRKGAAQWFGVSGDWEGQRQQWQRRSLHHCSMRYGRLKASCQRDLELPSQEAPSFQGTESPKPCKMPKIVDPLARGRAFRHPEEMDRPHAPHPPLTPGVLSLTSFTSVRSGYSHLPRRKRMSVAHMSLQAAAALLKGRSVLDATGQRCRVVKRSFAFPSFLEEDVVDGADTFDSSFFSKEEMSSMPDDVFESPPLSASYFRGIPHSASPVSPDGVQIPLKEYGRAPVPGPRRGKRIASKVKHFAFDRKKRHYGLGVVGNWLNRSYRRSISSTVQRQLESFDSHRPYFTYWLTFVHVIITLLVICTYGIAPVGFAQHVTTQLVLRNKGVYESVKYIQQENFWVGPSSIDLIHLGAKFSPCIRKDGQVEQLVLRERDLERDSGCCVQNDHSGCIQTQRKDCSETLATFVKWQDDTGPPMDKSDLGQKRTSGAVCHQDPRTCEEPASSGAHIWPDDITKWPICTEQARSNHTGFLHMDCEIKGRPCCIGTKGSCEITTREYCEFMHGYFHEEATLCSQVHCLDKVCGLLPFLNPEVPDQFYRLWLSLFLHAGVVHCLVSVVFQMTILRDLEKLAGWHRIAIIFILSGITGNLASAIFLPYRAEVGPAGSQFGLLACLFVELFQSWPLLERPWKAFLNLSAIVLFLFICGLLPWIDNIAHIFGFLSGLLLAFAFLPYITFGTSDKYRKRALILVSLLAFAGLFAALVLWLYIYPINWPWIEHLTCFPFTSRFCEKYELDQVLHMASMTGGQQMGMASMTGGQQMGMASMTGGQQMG


Biological target: T1, hiR2-FL-I483V-T7
Experiment: FACS, MEF-DKO cells, 3 µg/ml
Text: In brief, immortalized MEF-DKO-hiR2-FL-A431S-T7, MEF-DKO-hiR2-FL-V434E-T7, MEF-DKO-hiR2-FL-T436V-T7, MEF-DKO-hiR2-FL-Q437D-T7, MEF-DKO-hiR2-FL-L438S-T7, MEF-DKO-hiR2-FL-S448N-T7, MEF-DKO-hiR2-FL-I452V-T7, MEF-DKO-hiR2-FL-I464E-T7, MEF-DKO-hiR2-FL-D465A-T7, MEF-DKO-hiR2-FL-I477M-T7, MEF-DKO-hiR2-FL-K479Q-T7, MEF-DKO-hiR2-FL-G481P-T7, MEF-DKO-hiR2-FL-I483V-T7, MEF-DKO-hiR2-FL-E484H-T7, MEF-DKO-hiR2-FL-Q485S-T7, MEF-DKO-hiR2-FL-L486F-T7, MEF-DKO-hiR2-FL-V487I-T7, MEF-DKO-hiR2-FL-R489S-T7, MEF-DKO-hiR2-FL-E490A-T7, MEF-DKO-hiR2-FL-D492E-T7, MEF-DKO-hiR2-FL-L493R-T7, MEF-DKO-hiR2-FL-R495K-T7 and MEF-DKO-hiR2-FL-D496H-T7 cells were harvested with 10 mM EDTA in PBS, washed and resuspended in FACS buffer (PBS, 3% FBS, 0.05% sodium azide), and seeded in Nunc U-bottom 96-well plates (Thermo Fisher Scientific, USA) at approximately 1×10⁵ cells per well. To pellet cells and remove supernatants, the plates were centrifuged at 1,500 rpm and 4° C. for 3 minutes. For primary staining, cells were resuspended in 100 μl per well of either FACS buffer alone (controls) or the purified antibodies 3, 5, 16, 22, 34, 42, 43, 44, 48, and 50 of the invention at 3 μg/ml in FACS buffer and incubated on ice for 1 hour. Afterwards, plates were centrifuged at 1,500 rpm and 4° C. for 3 minutes and washed twice with 200 μl per well of FACS buffer. For secondary staining, cells were spun down and resuspended in 100 μl per well of PE-conjugated goat anti-mouse IgG F(ab′)2 detection fragment (Dianova, Germany) diluted 1:100 in FACS buffer. Protected from light, the cell suspensions were incubated on ice for 1 hour. Plates were then centrifuged at 1,500 rpm and 4° C. for 3 minutes and washed three times with 200 μl per well of FACS buffer. Finally, cells were resuspended in 150 μl per well of FACS buffer and analyzed using a BD Accuri™ C6 Plus flow cytometer (Becton Dickinson, Germany).

Row | Binder | loss of binding vs wild type
1 | antibody 48 (antibody, V domains shown, mouse IgG, kappa light chain; also called clone #48; purified antibody 48) VH: QVQLQQSGTELVRPGTSVKVSCKASGYAFTNYLIEWVKQRPGQGLEWIGVINPGSGFTKYNEKFKGKATLTADKSSSTVYMHLSSLTSEDSAVYFCARGLYRAMDYWGQGTSVTVSS VL: DIQMTQSPASQSASLGESVTITCLASQTIATWLAWYQQKPGKSPQLLIYGATTLADGVPSRFSGGGSGTKFSFKISSLQAEDFVSYYCQQLYSTPYTFGGGTKLEIK | ≥ 30%
2 | antibody 50 (antibody, V domains shown, mouse IgG, kappa light chain; also called clone #50; purified antibody 50) VH: QVQLQQSGAELVRPGASVKVSCKASGYAFSNYLIEWVKQRPGQGLEWIGVINPGSGFTKYNEKFKGKATLTADKSSSTAYMQLSSLTSEDSAVYFCARGLYRAMDYWGQGTSVTVSS VL: DIQMTQSPASQSASLGESVTITCLASQTIGTWLAWYQQKPGKSPQLLIYAAASLADGVPSRFSGGGSGTKFSFKISSLQAEDFVNYYCQQIYSTPYTFGGGTKLEIK | ≥ 30%
